The record followed here is article PMC10773898, “Evidence of DISC1 as an arsenic binding protein and implications regarding its role as a translational activator” (Frontiers in Molecular Biosciences, 2023).

Sequences and labels used below:
B1: DISC1 C-terminal construct (598-854), WT (domain or fragment, human, UniProt Q9NRI5-1 598-854, looked up)
chain: GNHFFTAKDLTEEIRSLTSEREGLEGLLSKLLVLSSRNVKKLGSVKEDYNRLRREVEHQETAYETSVKENTMKYMETLKNKLCSCKCPLLGKVWEADLEACRLLIQSLQLQEARGSLSVEDERQMDDLEGAAPPIPPRLHSEDKRKTPLKVLEEFKTHLIPSLHCAGGEQKEESYILSAELGEKCEDIGKKLLYLEDQLHTAIHSHDEDLIQSLRRELQMVKETLQAMILQLQPAKEAGEREAAASCMTAGVHEAQA
notes: Disrupted-in-schizophrenia-1 (DISC1), human, residues 598-854, with W602F and W752F so that W691 is the single tryptophan; In pET28b(+) as His-tag fusion; also called DISC1 598-854; C-terminal WT construct; source: E. coli BL21 (DE3), purified (Ni-NTA, SEC)
B2: DISC1 598-854 C682S/C698S/C762S/C782S/C844S (domain or fragment, human, UniProt Q9NRI5-1 598-854, looked up)
chain: B1 chain with C85S, C101S, C165S, C185S, C247S
notes: DISC1, human, residues 598-854; source: E. coli BL21 (DE3), purified (Ni-NTA, SEC)
B3: DISC1 598-854 C682S/C684S/C698S/C762S/C782S/C844S (domain or fragment, human, UniProt Q9NRI5-1 598-854, looked up)
chain: B1 chain with C85S, C87S, C101S, C165S, C185S, C247S
notes: as for B2
B4: DISC1 598-854 C680S/C682S/C698S/C762S/C782S/C844S (domain or fragment, human, UniProt Q9NRI5-1 598-854, looked up)
chain: B1 chain with C83S, C85S, C101S, C165S, C185S, C247S
notes: as for B2
B5: DISC1 598-854 C680S/C698S/C762S/C782S/C844S (domain or fragment, human, UniProt Q9NRI5-1 598-854, looked up)
chain: B1 chain with C83S, C101S, C165S, C185S, C247S
notes: as for B2
B6: DISC1 598-854 C684S/C698S/C762S/C782S/C844S (domain or fragment, human, UniProt Q9NRI5-1 598-854, looked up)
chain: B1 chain with C87S, C101S, C165S, C185S, C247S
notes: as for B2
B7: DISC1 598-854 (C698S/C762S/C782S/C844S) (domain or fragment, human, UniProt Q9NRI5-1 598-854, looked up)
chain: B1 chain with C101S, C165S, C185S, C247S
notes: DISC1, human, residues 598-854; also called WT*; pseudo-WT variant; source: E. coli BL21 (DE3), purified (Ni-NTA, SEC)
B8: DISC1 598-854 C680S/C684S/C698S/C762S/C782S/C844S (domain or fragment, human, UniProt Q9NRI5-1 598-854, looked up)
chain: B1 chain with C83S, C87S, C101S, C165S, C185S, C247S
notes: as for B2
B9: DISC1 598-854 C680S/C682S/C684S/C698S/C762S/C782S/C844S (domain or fragment, human, UniProt Q9NRI5-1 598-854, looked up)
chain: B1 chain with C83S, C85S, C87S, C101S, C165S, C185S, C247S
notes: DISC1, human, residues 598-854, all cysteines mutated to serine; also called C680S/C6802S/C684S*; C680S/C684S/C682S*; source: E. coli BL21 (DE3), purified (Ni-NTA, SEC)

Substitutions are numbered along the chain they refer to. In names and notes the source's numbering stands.

This data set concerns the molecule itself. Description: SEC; HiLoad 26/600 Superdex 200 pg; 50 mM Tris-HCl, 10 mM NaCl, pH 8.0; self-association of the purified construct. (Size exclusion chromatography separates by hydrodynamic size, large species first.)
One may read the stoichiometry N as a count of units in the complex or per binding partner. As for B1, the “stoichiometry N” value was found to be 4.
Turning to B2, the binding result is “binds”.
B3: the binding result is “binds”.
Take B4: the binding result was “binds”.
On to B5, for which the binding result is recorded as “binds”.
As for B6, the binding result is “binds”.
For B7, the binding result was “binds”.
Turning to B8, the binding result is on record as “binds”.
For the protein B9, the binding result is given as “binds”.
